The data set can be described thus: Stability of radioligands in PBS buffer (radio-HPLC). Type of data set: physicochemical.
Setting [1] is: PBS buffer pH=7.4, 37° C., 0.5 hours.
The mark [2] stands for this setting: PBS buffer pH=7.4, 37° C., 1 hour.
Where [3] appears, read: PBS buffer pH=7.4, 37° C., 2 hours.

Structures are written as SMILES. Where two headings read alike, the source gives them in different places. *1 amine or outer side, *2 acyl side, *3 side chain or, on linkers, in order; H or OH if unused. Where a SMILES comes first, the peptide text is derived from it. Bridges are numbered along the chain shown (N, C = ends). [ ]: non-standard residue; d: D form. The star is where a group is joined. X1 = N#C[C@@H]1CC(F)(F)CN1C(=O)CNC(=O)c1ccnc2ccc(OCCCN3CCN(*)CC3)cc12; DOTA = O=C(O)CN1CCN(CC(=O)O)CCN(CC(=O)*)CCN(CC(=O)O)CC1; 2Nal = N[C@@H](Cc1ccc2ccccc2c1)C(=O)O; Cit = NC(=O)NCCC[C@H](N)C(=O)O; Suc = O=C(CCC(=O)[*:2])[*:1]; AEEA = NCCOCCOCC(=O)O

Consider `N#C[C@@H]1CC(F)(F)CN1C(=O)CNC(=O)c1ccnc2ccc(OCCCN3CCN(C(=O)CCC(=O)N[C@@H](CCCCNC(=O)CN4CCN(CC(=O)O)CCN(CC(=O)O)CCN(CC(=O)O)CC4)C(=O)NCCOCCOCC(=O)NCCOCCOCC(=O)N[C@@H](CCCNC(=N)N)C(=O)N[C@@H](CCCNC(=N)N)C(=O)N[C@@H](Cc4ccc5ccccc5c4)C(=O)N[C@H]4CSSC[C@@H](C(=O)N[C@@H](CCCNC(=N)N)C(N)=O)NC(=O)[C@H](CCCNC(N)=O)NC(=O)[C@H](CCCNC(=N)N)NC(=O)[C@H](Cc5ccc(O)cc5)NC(=O)[C@@H]5CCCN5C(=O)[C@H](CCCCN)NC(=O)[C@H](CCCCN)NC(=O)[C@H](CCCNC(N)=O)NC(=O)[C@H](Cc5ccc(O)cc5)NC4=O)CC3)cc12` [^68Ga-SDYD01, metal not drawn] ({X1-Suc}-K(DOTA)[AEEA][AEEA]RR[2Nal]CY[Cit]KKPYR[Cit]CR-NH2; disulfide 7-16), for which the “stability in PBS buffer (in words)” value was “quite stable in PBS buffer”. Further, the “radiochemical purity after incubation in PBS” value (from here on “radiochemical purity”) under setting [1] is reported as 98%. For the same compound, under setting [2], the “radiochemical purity” value stood at 97%. In addition, the “radiochemical purity” value under setting [3] came out at 97%.
Consider `CCCCCC(=O)N[C@H]1CSCc2cc(CSCCNC(=O)[C@H](CCCCNC(=O)CN3CCN(CC(=O)O)CCN(CC(=O)O)CCN(CC(=O)O)CC3)NC(=O)COCCOCCNC(=O)COCCOCCNC(=O)CCN3C(=O)CC(SCCNC(=O)CCC(=O)NCc4ccc(NC(=O)COCC(=O)N[C@H](Cc5ccccc5)C(=O)N[C@@H](CCC(N)=O)C(=O)N[C@@H](Cc5c[nH]c6ccccc56)C(=O)N[C@@H](C)C(=O)N[C@H](C(=O)NCC(=O)N[C@@H](Cc5c[nH]cn5)C(=O)NC(CC(C)C)CC(C)C)C(C)C)cc4)C3=O)cc(c2)CSC[C@@H](C(=O)O)NC(=O)[C@H](Cc2ccccc2)NC(=O)[C@H](CCC(N)=O)NC(=O)C([C@@H](C)O)NC(=O)[C@@H]2CCCN2C(=O)[C@@H]2CCCN2C1=O` (some centres unmarked) [^68Ga-SDYD04, metal not drawn], for which the “stability in PBS buffer (in words)” value (PBS buffer pH=7.4, 37° C.) was “quite stable in PBS buffer”. For the same compound, the “radiochemical purity” value under setting [1] stood at 97%, the “radiochemical purity” value under setting [2] was 97% and the “radiochemical purity” value under setting [3] came to 95%.

The record behind these values is patent publication US20260069728A1, “MULTI-TARGETING COMPOUND AND USE THEREOF” (Chengdu Shetai Medical Technology Co., Ltd., priority 2023, published 2026).
